Measurements published in patent US12258605B2, “Alkane oxidation by modified hydroxylases” (The California Institute of Technology, priority 2005, dated 2025).

Tests used:
Type in all cases: biochemical
[1] = Reactions on alkanes, total turnovers (Table 18): nonane; conditions: nonane (9 C atoms)
Experimental: (§1) Reactions on alkanes. Reactions with alkanes from pentane to decane were carried out at 3 mL-scale using 100 mM KPi pH 8.0 buffer containing 2% ethanol (to allow alkane solubilization) and purified protein. 2.5 mL KPi buffer were added with 60 μL of 90 mM alkane solution in ethanol (final conc.=1.8 mM), 150 μL enzyme solution at 1 μM (final conc.=50 nM), and 300 μL NADPH regeneration solution (100 units/mL isocitrate dehydrogenase, 70 mg/mL isocitrate, 1.5 mg/ml NADP^+). Vials were sealed and stirred for 24 hours at 4° C. 1 mL-aliquot of the reaction was removed, added with 10 μl internal standard (25 mM 1-bromohexane in ethanol), and extracted with 200 μl chloroform (30 sec vortexing, 1 min centrifugation at 10000 g). The organic phase was removed and analyzed by gas chromatography. Reactions with ethane, propane, and butane were carried out as described for longer alkanes with the only difference that alkane-saturated KPi buffer was used. Propane reactions with variants from HL5 and L9 libraries were performed on 1 mL-scale reaction using 20 nM enzyme to reduce oxygen limitation. Propane and butane reactions were analyzed by direct injection of reaction solution on the GC using 1-pentanol as internal standard. Ethane reaction products were functionalized (see below) and analyzed by GC using 1-butanol as internal standard. All measurements were performed in triplicate.
(§2) Products from alkane reactions were identified and quantified by gas chromatography using authentic standards and calibration curves with internal standards. For the reactions with alkanes from pentane to decane, GC analyses were carried out using a Shimadzu GC-17A gas chromatograph, Agilent HP5 column (30 m×0.32 mm×0.1 μm film), 1 μL injection, FID detector, and the following separation program: 250° C. inlet, 250° C. detector, 50° C. oven for 3 min, 5° C./min gradient to 100° C., 25° C./min gradient to 230° C., and 230° C. for 3 min. For butane and propane (TTN) reactions, GC analyses were carried out using a Hewlett-Packard 5890 Series II Plus gas chromatograph, Supelco SPB-1 column (60 m×0.52 mm×0.5 μm film), 0.5 μL injection, FID detector, and the following separation program: 250° C. inlet, 275° C. detector, 80° C. oven for 2 min, 10° C./min gradient to 110° C., 25° C./min gradient to 275° C., and 275° C. for 2.5 min. For ethane and propane (rate) reactions, analysis of reaction mixtures was carried out by derivatization to alkyl nitrites followed by GC-ECD analysis. For laurate, reaction product analysis was carried out by derivatization with N-methyl-N-trimethylsilylheptafluorobutyramide followed by extraction with hexane. Organic solutions were analyzed by FID-GC.
(§3) TTNs for each variant-substrate pair were determined using standardized reaction conditions (identical enzyme and substrate concentration, incubation time, cofactor regeneration system) (Table 18). TTN values were used to assess performance because TTN is a cumulative measure of both catalytic and coupling efficiency and because mutants were selected based on improvement in this property. To facilitate comparison among the variants, TTNs were normalized to the highest value in the series (MTN=Maximal Turnover Number) and plotted for the increasing-sized substrates (FIG. 38). A gradual shift of the enzyme's substrate preference during laboratory evolution is evident from these profiles. The marginal activity of wild-type BM3 on these substrates (MTN=150) is restricted to the long-chain alkanes, where it is a promiscuous function of BM3's high C12-C20 fatty acid hydroxylase activity. In the first evolutionary intermediates, substrate preference centers on medium-chain alkanes […], reflecting their selection for activity on octane. In 35E11, selected for activity on propane, preference still centers on C6-C8 alkanes but now extends towards the shorter ones, including propane. Propane activity becomes prevalent with the transition from variant ETS8 to 19A12. […]

[2] = Reactions on alkanes, total turnovers (Table 18): decane; conditions: decane (10 C atoms)
Experimental: as §1, §2, §3

[3] = Kinetic measurements (Michaelis-Menten): propane; conditions: N.a. = not active
Experimental: Rate measurements. Initial rates of product formation were determined at 25° C. in 100 mM KPi pH 8.0 buffer using purified protein (100 nM) and a substrate concentration of 1.6 mM. In a 5 mL-vial, 20 μL of alkane solution (in ethanol) were dissolved in 400 μL KPi buffer, to which 500 μL enzyme solution at 100-200 nM was added. Reaction was initiated by adding 100 μL of 5 mM NADPH solution, followed by stirring at 300 rpm for 1 minute, and quenched by adding 200 μL chloroform and stirring at 800 rpm for 10 sec. Solutions were transferred to an Eppendorf tube, to which internal standard (10 μL 25 mM 1-bromohexane in ethanol) was added. Tubes were vortexed for 10 sec and centrifuged for 30 sec at 10,000 g. Organic phase was removed and analyzed by GC. For propane, reactions were carried out in a 5 mL-scale using 100-400 nM purified enzyme, propane-saturated buffer (propane concentration≈1.6 mM) and a final NADPH concentration of 500 μM. Reactions were stopped by addition of 200 μL H2SO4 conc. and analyzed by derivatization to alkyl nitrites followed by GC-ECD analysis as described below.
Kinetic measurements. […] Reactions were carried out in a 5 mL-scale using 100-400 nM purified enzyme and a final NADPH concentration of 1 mM. After 30 seconds, reactions were stopped by addition of 200 μL H2SO4 conc. and analyzed by GC as described below. Propane leakage during the experiment was neglected in reason of short measuring time. All measurements were performed in triplicate. Kinetic parameters were estimated from least-squares nonlinear regression to the Michaelis-Menten equation,
[formula] where v is the initial velocity, S is the substrate concentration, Vmax is the maximum velocity, and Km is the apparent Michaelis constant for the substrate.
as §2, with “For ethane and propane (rate) reactions, analysis of reaction mixtures was carried out by derivatization to alkyl nitrites followed by GC-ECD analysis. For laurate, reaction product analysis was carried out by derivatization with N-methyl-N-trimethylsilylheptafluorobutyramide followed by extraction with hexane.” left out

[4] = Reactions on alkanes, total turnovers (Table 18): butane
Experimental: as §1, §2, §3

[5] = Reactions on alkanes, total turnovers (Table 18): pentane; conditions: pentane (5 C atoms)
Experimental: as §1, §2, §3

[6] = Reactions on alkanes, total turnovers (Table 18): octane; conditions: octane (8 C atoms)
Experimental: as §1, §2, §3

[7] = Reactions on alkanes, total turnovers (Table 18): heptane; conditions: heptane (7 C atoms)
Experimental: as §1, §2, §3

[8] = TTN normalized to the highest value of the variant's series
[9] = total turnovers, standardized reaction conditions

B1: P450PMO: P450 BM-3 variant, SEQ ID NO:125; 7-7 plus G443A and D698G; propane monooxygenase (protein)
chain: TIKEMPQPKTFGELKNLPLLNTDKPVQALMKIADELGEIFKFEAPGCVTRYISSQRLIKEACDESRFDKNLSQELKFFRDFGGDGLFTSWTHEINWKKAHNILLPSFSQQAMKGYHAMMVDIAVQLVQKWERLNADEHIEVSEDMTRLTLDTIGLCGFNYRFNSFYRDQPHPFIISMVRALDEVMNKPQRANPDDPAYDENKRQCQEDIKVMNDLVDKIIADRKARGEQSDDLLTQMLNGKDPETGEPLDDGNISYQIITFLIAGHETTSGLLSFALYFLVKNPHVLQKVVEEAARVLVDPVPSYKQVKQLKYVGMVLNEALRLWPTFPAFSLYAKEDTVLGGEYPLEKGDEVMVLIPQLHRDKTVWGDDVEEFRPERFENPSAIPQHAFKPFGNGQRACIGQQFALHEATLVLGMMLKHFDFEDHTNYELDIKETLTLKPEAFVVKAKSKKIPLGGIPSPSTGQSAKKVRKKAENAHNTPLLVLYGSNMGTAEGTARDLADIAMSKGFAPQVATLDSHAGNLPREGAVLIVTASYNGHPPDNAKQFVDWLDQASADEVKGVRYSVFGCGDKNWATTYQKVPAFIDETLAAKGAENIADRGEADASDDFEGTYEEWREHMWSDVAAYFNLDIENSEDNKSTLSLQFVDSAADMPLAKMHGAFSTNVVASKELQQPGSARSTRHLEIELPKEASYQEGGHLGVIPRNYEGTVNRVTARFGLDASQQIRLEAEEEKLAHLPLAKTVSVEELLQYVELQDPVTRTQLRAMAAKTVCPPHKVELEALLEKQAYKEQVLAKRLTMLELLEKYPACEMKFSEFIALLPSIRPRYYSISSSPRVDEKQASITVSVVSGEAWSGYGEYKGIASNYLAELQEGDTITCFISTPQSEFTLPKDPETPLIMVGPGTGVAPFRGFVQARKQLKEQGQSLGEAHLYFGCRSPHEDYLYQEELENAQSEGIITLHTAFSRMPNQPKTYVQHVMEQDGKKLIELLDQGAHFYICGDGSQMAPAVEATLMKSYADVHQVSEADARLWLQQLEEKGRYAKDVWAG
modifications: Mutant P450PMO protein sequence
notes: 7-7 plus G443A and D698G; propane monooxygenase
% rel. act. [1, 8]: 11.7% | TTN [1, 9]: 2390 ± 30 | % rel. act. [2, 8]: 5.3% | TTN [2, 9]: 1080 ± 30 | Km [3]: 170 µM | kcat [3]: 3.08 ± 0.583 s⁻¹ | % rel. act. ([4]; butane (4 C atoms), TTN normalized to the highest value of the variant's series): 30.2% | TTN ([4]; butane (4 C atoms), total turnovers, standardized reaction conditions): 6200 ± 400 | drop in activity when a single methylene unit is added to the substrate ([4]; relative to propane): 90% | % rel. act. [5, 8]: 4.9% | TTN [5, 9]: 1000 ± 110 | % rel. act. [6, 8]: 9.2% | TTN [6, 9]: 1880 ± 60 | % rel. act. [7, 8]: 14.6% | TTN [7, 9]: 2990 ± 165
